# Measured values: patent publication US20200338146A1
# Legend:
# [1] = molecular target: AAV2.5T.LSV1 virion expressing GFP (AAV2.5T.LSV1-CMV-GFP); experiment: cell-based or functional assay
# [2] = molecular target: AAV2 virion expressing GFP (AAV2-CMV-GFP) (AAV2) (UniProt P03135); experiment: cell-based or functional assay
substance,measurement,setting,value
pooled human IgG antibodies (Gammagard IVIG),IC50 of inhibition of GFP expression in transduced 293T cells (reciprocal dilution of the pooled human IgG antibody sample at which GFP expression is reduced by 50%) (reciprocal dilution),[1],9.3
same,IC50 of inhibition of GFP expression in transduced 293T cells (reciprocal dilution of the pooled human IgG antibody sample at which GFP expression is reduced by 50%) (reciprocal dilution),[2],104
